Patent publication US20250002564A1 (HOSPITAL FOR SICK CHILDREN, published 2025)

Assays:
mouse FcRn [1] = target: T1, mouse FcRn (mouse, UniProt Q61559 22-297; P01887 21-119); assay: pH 5.6
T1 construct: also called mFcRn
T1 sequence (looked up) 1: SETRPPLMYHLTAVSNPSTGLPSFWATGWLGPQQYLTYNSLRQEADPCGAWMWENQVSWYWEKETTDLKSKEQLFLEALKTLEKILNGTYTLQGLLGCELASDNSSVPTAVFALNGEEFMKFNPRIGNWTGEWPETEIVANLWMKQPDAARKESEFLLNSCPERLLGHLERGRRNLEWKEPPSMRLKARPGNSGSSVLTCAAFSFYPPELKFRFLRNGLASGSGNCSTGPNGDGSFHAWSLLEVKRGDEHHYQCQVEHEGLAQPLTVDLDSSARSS
T1 sequence (looked up) 2: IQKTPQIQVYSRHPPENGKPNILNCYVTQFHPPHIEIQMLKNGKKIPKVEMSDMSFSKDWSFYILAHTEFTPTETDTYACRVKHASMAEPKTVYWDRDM

mouse FcγRI = target: T2, mouse FcγRI (mouse, UniProt P26151 25-297)
T2 sequence (looked up): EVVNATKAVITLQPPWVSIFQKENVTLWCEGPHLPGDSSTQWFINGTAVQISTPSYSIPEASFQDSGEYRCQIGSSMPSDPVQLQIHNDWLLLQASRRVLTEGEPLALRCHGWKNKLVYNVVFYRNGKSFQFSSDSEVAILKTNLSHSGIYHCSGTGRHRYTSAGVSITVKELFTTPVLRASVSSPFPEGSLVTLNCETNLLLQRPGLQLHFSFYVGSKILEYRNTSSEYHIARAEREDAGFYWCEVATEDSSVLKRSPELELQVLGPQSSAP

mouse FcRn [2] = target: T1, mouse FcRn

B1: HD37 single chain IgG2a (mouse, anti-hCD19) (antibody)
chain: DILLTQTPASLAVSLGQRATISCKASQSVDYDGDSYLNWYQQIPGQPPKLLIYDASNLVSGIPPRFSGSGSGTDFTLNIHPVEKVDAATYHCQQSTEDPWTFGGGTKLEIKRADAAPTVSIFPPSSEQLTSGGASVVCFLNNFYPKDINVKWKIDGSERQNGVLNSWTDQDSKDSTYSMSSTLTLTKDEYERHNSYTCEATHKTSTSPIVKSFNRNECGGSSGSGSGSTGTSSSGTGTSAGTTGTSASTSGSGSGGGGGSGGGGSAGGTATAGASSGSGSSGSSSSGGTGTGQVQLQQSGAELVRPGSSVKISCKASGYAFSSYWMNWVKQRPGQGLEWIGQIWPGDGDTNYNGKFKGKATLTADESSSTAYMQLSSLASEDSAVYFCARRETTTVGRYYYAMDYWGQGTSVTVSSSQSFPNVFPLVSCESPLSDKNLVAMGCLARDFLPSTISFTWNYQNNTEVIQGIRTFPTLRTGGKYLATSQVLLSPKSILEGSDEYLVCKIHYGGKNRDLHVPIPSKPCPPCKCPAPNLLGGPSVFIFPPKIKDVLMISLSPIVTCVVVDVSEDDPDVQISWFVNNVEVHTAQTQTHREDYNSTLRVVSALPIQHQDWMSGKEFKCKVNNKDLPAPIERTISKPKGSVRAPQVYVLPPPEEEMTKKQVTLTCMVTDFMPEDIYVEWTNNGKTELNYKNTEPVLDSDGSYFMYSKLRVEKKNWVERNSYSCSVVHEGLHNHHTTKSFSRTPGK
notes: also called mIgG2a control; parental IgG
Kd (mouse FcRn [1]): 1.06 nM | koff (mouse FcRn [1]): 0.000123 s⁻¹ | Kd (mouse FcγRI): 8.63 nM | koff (mouse FcγRI): 0.000451 s⁻¹ | kon (mouse FcγRI): 52200 M⁻¹ s⁻¹ | kon (mouse FcRn [2]): 116000 M⁻¹ s⁻¹
